Assay results published in US20240254203A1.

Target: MERS CoV spike protein (MERS CoV) (UniProt K9N5Q8)
Assay: cell-based or functional assay

Sequence of MERS CoV spike protein (MERS CoV) (K9N5Q8 18-1353): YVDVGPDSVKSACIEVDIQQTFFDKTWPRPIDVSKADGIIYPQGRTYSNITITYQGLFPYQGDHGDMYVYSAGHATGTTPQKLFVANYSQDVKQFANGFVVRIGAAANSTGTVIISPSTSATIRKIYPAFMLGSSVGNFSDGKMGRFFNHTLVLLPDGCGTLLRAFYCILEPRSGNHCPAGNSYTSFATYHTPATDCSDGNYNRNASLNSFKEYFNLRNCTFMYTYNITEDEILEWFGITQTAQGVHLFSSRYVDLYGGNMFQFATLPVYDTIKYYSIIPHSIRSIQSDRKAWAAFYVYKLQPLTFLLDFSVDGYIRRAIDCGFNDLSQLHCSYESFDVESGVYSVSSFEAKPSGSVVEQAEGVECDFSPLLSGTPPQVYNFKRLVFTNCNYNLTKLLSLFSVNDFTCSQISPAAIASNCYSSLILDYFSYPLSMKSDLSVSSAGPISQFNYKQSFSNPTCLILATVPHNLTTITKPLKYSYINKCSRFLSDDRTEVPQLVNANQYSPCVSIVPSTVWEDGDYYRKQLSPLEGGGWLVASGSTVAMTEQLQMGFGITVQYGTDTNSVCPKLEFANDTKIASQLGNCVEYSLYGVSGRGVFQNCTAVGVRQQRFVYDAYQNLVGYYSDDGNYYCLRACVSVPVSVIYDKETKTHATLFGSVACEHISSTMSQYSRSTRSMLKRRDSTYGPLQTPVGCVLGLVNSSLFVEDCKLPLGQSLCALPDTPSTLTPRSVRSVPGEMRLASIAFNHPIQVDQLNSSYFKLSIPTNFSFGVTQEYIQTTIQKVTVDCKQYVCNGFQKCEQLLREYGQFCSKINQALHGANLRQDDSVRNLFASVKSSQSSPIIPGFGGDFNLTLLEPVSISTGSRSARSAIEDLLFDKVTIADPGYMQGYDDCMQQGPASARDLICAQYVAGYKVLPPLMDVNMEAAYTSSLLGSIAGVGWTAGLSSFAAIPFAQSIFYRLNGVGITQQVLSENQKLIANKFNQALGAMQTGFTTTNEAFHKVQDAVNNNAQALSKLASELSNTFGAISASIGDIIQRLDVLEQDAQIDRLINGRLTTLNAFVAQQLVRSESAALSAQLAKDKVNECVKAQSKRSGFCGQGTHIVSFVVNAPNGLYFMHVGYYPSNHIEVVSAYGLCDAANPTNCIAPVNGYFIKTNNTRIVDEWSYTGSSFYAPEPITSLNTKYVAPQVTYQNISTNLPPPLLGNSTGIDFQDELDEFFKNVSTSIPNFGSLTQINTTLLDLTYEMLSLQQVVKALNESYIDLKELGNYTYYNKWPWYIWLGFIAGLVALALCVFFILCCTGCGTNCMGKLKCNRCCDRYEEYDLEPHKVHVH

B1: αNTD:7D10/VM (scFv)
scFv: DIVMTQSPASLTVSLGQRATISCRASKSVSASGYNYLHWYQQRPGQPPKLLIYLAFNLESGVPARFNGSGSGTDFTLNIHPVEEEDAATYYCQHSRDLPFTFGSGTKLEIKGGGSGGGSGGGSEVQLVESGAEVVKPGASVKMSCKASGYPFTSYNIHWIKQTPGQGLEWIGAIYPGNGDTSYTQKFKVKATLTSDKSSSTAYMQLSSLTSEDSAVYFCARYGNYPSYAMDYWGQGTSVTVSSSRGMLDSDLHLSSKAQVFEHPHIQDAASQLPDDESLFFGDTGLSKNPIELVEGWFSSWKSSIASFFFIIGLIIGLFLVLRVGIHLCIKLKHTKKRQIYTDIEMNRLGK
Antivirus vs Pseudovirus IC50 (pM): 12 pM

B2: soluble 7D10 (antibody, V domains shown)
VH: EVQLVESGAEVVKPGASVKMSCKASGYPFTSYNIHWIKQTPGQGLEWIGAIYPGNGDTSYTQKFKVKATLTSDKSSSTAYMQLSSLTSEDSAVYFCARYGNYPSYAMDYWGQGTSVTVSS
VL: DIVMTQSPASLTVSLGQRATISCRASKSVSASGYNYLHWYQQRPGQPPKLLIYLAFNLESGVPARFNGSGSGTDFTLNIHPVEEEDAATYYCQHSRDLPFTFGSGTKLEIK
IC50, neutralization of MERS CoV by the soluble antibody: 1.2 nM
